# What was measured:
# [1] = target: T1, human PCSK9 (Homo sapiens, UniProt Q8NBP7, E620G/G670E/V474I); assay: Serum lipids in C57BL/6 mice expressing human PCSK9 by AAV; format: in vivo, mouse; conditions: 30 mg/kg IV bolus
# T1 construct: made in house
# Method: Briefly, 120 C57BL/6 mice expressing human PCSK9 were generated by infection with an engineered adeno associated virus (AAV) coding for human PCSK9, resulting in elevated levels of circulating low density lipoprotein cholesterol (LDL-C). Serum cholesterol analysis was performed using the Cobas Integra 400 plus chemistry analyzer (Roche Diagnostics, Indianapolis, Ind.). Animals were randomized into treatment groups with similar levels of non-HDL-C (LDL-C and VLDL-C), HDL-C and TC. On treatment day 0 (T=0) a subset of mice was euthanized and serum collected to establish that day's baseline levels. Remaining mice were then administered 11F1, 8A3 or anti-keyhole limpethemocyanin (KLH) IgG2 control antibody at 30 mg/kg. via tail vein injection. At days 1 through 5 following injection, subsets of mice were euthanized and whole blood was collected from the vena cava and allowed to coagulate for 30 minutes at room temperature. Following centrifugation at 12,000 rpm with a bench top centrifuge for 10 minutes, serum was collected. Serum cholesterol analysis was performed using the Cobas Integra 400 plus chemistry analyzer.
# All cholesterol results were expressed as the mean±standard error of the mean. All pharmacokinetic data were expressed as the mean±standard deviation. The p value of 0.05, determined by 1-way ANOVA was used as a threshold to determine statistical significance between the anti-KLH IgG2 control antibody injected animals and those dosed with anti-PCSK9 antibody at the same time point.
# [2] = Pharmacokinetics in mice expressing human PCSK9 by AAV; format: in vivo, mouse; conditions: 30 mg/kg intravenous
# Method: Serum concentrations of antibody were determined using a sandwich ELISA assay. Polyclonal goat anti-human Fc IgG and an HRP-labeled goat anti-human IgG Fcγ polyclonal reagent (both from Jackson ImmunoResearch Laboratories Inc, West Grove, Pa.) were used as the capture and the detection antibody, respectively. A 3,3′,5,5′ tetramethylbenzidine (TMB) substrate solution reacted with peroxide, and in the presence of horse radish peroxidase (HRP), created a colorimetric signal that was proportional to the amount of the respective anti-PCSK9 antibody bound by the capture reagent. The intensity of the color (optical density, OD) was measured at 450 nm minus 650 nm using a microplate reader (Spectra Max Plus 384). Data was analyzed using Watson version 7.0.0.01 (Thermo Scientific, Waltham, Mass.) data reduction package with a Logistic (auto-estimate) regression of separately prepared standard curves. The lower limit of quantification (LLOQ) for the assay was […].
# Non-compartmental analysis (NCA) was performed on serum concentrations using the pre-determined nominal time points for each subject using WinNonlin Enterprise, version 5.1.1 (Pharsight, St. Louis, Mo.). […] NCA parameters reported include: apparent half-life (t½), area under the serum concentration-time curve from time zero to the last measured concentration (AUC0-t), and apparent serum clearance (CL0-t). […]
# [3] = Viscosity measurement of 11F1 formulations; format: physicochemical; conditions: 10 mM sodium acetate
# Method: Concentration determination was then carried out by measuring absorbance at A280 using an Agilent 8453 Spectrophotometer (Santa Clara, Calif.). Protein concentration was calculated using the appropriate extinction coefficient. The appropriate amount of buffer was then added to the sample to dilute it back down to the desired concentration and another A280 was performed to obtain the final concentration for the experiment. Excipients were added individually to the 11F1 formulations samples derived from the high concentration stock solutions.
# Viscosity was measured using Brookfield LV-DVII cone and plate viscometer (Middleboro, Mass.) with a CPE-40 spindle with matching sample cup temperature regulated by a circulating water bath at constant 25° C. 500 μL of sample was added to sample cup with positive displacement pipettor. […] At this point the rotational speed was stopped and a viscosity reading was generated by Rheocalc software.
# High concentration protein formulations were sometimes measured using a different type of viscometer, an Anton Paar Physica Model MCR300 with a CP50-1 spindle. A 600 uL sample is used in this instrument and Rheoplus software version 3.4 was use to calculate solution viscosity. There was not a large difference in measurements using either viscometer.
# T1 sequence (Q8NBP7 153-692 V474I/E620G/G670E): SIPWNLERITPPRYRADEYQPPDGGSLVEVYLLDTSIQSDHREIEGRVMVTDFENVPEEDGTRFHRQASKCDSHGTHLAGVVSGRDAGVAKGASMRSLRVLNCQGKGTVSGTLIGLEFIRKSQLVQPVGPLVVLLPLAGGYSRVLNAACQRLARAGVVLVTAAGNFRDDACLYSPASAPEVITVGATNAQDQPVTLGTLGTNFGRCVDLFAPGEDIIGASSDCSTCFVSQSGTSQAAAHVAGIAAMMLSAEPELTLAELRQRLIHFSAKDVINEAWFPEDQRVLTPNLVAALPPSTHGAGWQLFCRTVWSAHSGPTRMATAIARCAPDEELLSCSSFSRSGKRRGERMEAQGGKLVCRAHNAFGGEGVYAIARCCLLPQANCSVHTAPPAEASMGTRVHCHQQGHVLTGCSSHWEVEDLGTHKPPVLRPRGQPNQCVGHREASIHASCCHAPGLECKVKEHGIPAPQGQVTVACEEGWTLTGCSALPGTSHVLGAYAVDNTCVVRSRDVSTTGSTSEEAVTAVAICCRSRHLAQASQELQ
substance,measurement,setting,value
"11F1: anti-PCSK9 ABP, light/heavy variable region SEQ ID NO 465/463 [Antibody 11F1]",lowering of HDL-C vs control animals,[1]; any time point,No significant lowering of HDL-C
same,lowering of TC vs control animals,[1]; day 4 only,22%
same,maximum lowering of serum non-HDL-C vs control animals,"[1]; significant at days 1, 2 and 4 post-injection",59%
same,"AUC0-t exposures, estimated CL0-t and apparent half-lives of 11F1 vs 8A3",[2],equivalent
same,Viscosity @ 25 C.,"[3]; 145 mg/mL, 9% Sucrose 0.01% PS 20, pH 5.2",14 cP
same,Viscosity @ 25 C.,"[3]; 147 mg/mL, 150 mM Methionine, 3% Sucrose, 0.01% PS 20, pH 5.2",13 cP
same,Viscosity @ 25 C.,"[3]; 170 mg/mL, 250 mM Praline, 0.01% PS 20, pH 5.0",18 cP
same,Viscosity @ 25 C.,"[3]; 172 mg/mL, 9% Sucrose 0.01% PS 20, pH 5.2",23 cP
same,Viscosity @ 25 C.,"[3]; 186 mg/mL, 9% Sucrose 0.01% PS 20, pH 5.2",45 cP
same,Viscosity @ 25 C.,"[3]; 191 mg/mL, 9% Sucrose 0.01% PS 20, pH 5.2",53 cP
same,Viscosity @ 25 C.,"[3]; 192 mg/mL, 150 mM Methionine, 3% Sucrose, 0.01% PS 20, pH 5.2",31 cP
same,Viscosity @ 25 C.,"[3]; 196 mg/mL, 250 mM Praline, 0.01% PS 20, pH 5.0",36 cP
same,Viscosity @ 25 C.,"[3]; 211 mg/mL, 9% Sucrose, 100 mM Arginine, pH 5.2",26 cP
same,Viscosity @ 25 C.,"[3]; 211 mg/mL, 9% Sucrose, 150 mM Alanine, pH 5.2",43 cP
same,Viscosity @ 25 C.,"[3]; 211 mg/mL, 9% Sucrose, 150 mM Glycine, pH 5.2",45 cP
same,Viscosity @ 25 C.,"[3]; 211 mg/mL, 9% Sucrose, 150 mM Serine, pH 5.2",48 cP
same,Viscosity @ 25 C.,"[3]; 211 mg/mL, 9% Sucrose, 150 mM sodium chloride, pH 5.2",62 cP
same,Viscosity @ 25 C.,"[3]; 211 mg/mL, 9% Sucrose, pH 5.2",73 cP
same,Viscosity @ 25 C.,"[3]; 211 mg/mL, pH 5.2",58 cP
same,Viscosity @ 25 C.,"[3]; 212 mg/mL, 150 mM Methionine, 3% Sucrose, 0.01% PS 20, pH 5.2",54 cP
same,Viscosity @ 25 C.,"[3]; 212 mg/mL, 250 mM Praline, 0.01% PS 20, pH 5.0",47 cP
same,Viscosity @ 25 C.,"[3]; 224 mg/mL, 9% Sucrose 0.01% PS 20, pH 5.2",133 cP
same,Viscosity @ 25 C.,"[3]; […], 150 mM Methionine, 3% Sucrose, 0.01% PS 20, pH 5.2",18 cP
same,Viscosity @ 25 C.,"[3]; […], 9% Sucrose 0.01% PS 20, pH 5.2",8 cP

# From patent US12612465B2, “Formulations comprising PCSK9 specific monoclonal antibodies” (Amgen Inc., priority 2012, dated 2026)
